Results published in publication PMC12711580, “Florigen activation complex forms via multifaceted assembly in Arabidopsis” (Nature, 2025).

T1: MBP–FD(T282E), maltose-binding protein-fused phospho-mimic mutant FD (Arabidopsis thaliana, UniProt Q84JK2 2-285, T282E)
T1 construct: FD, bZIP transcription factor, Arabidopsis thaliana; residues 2-285; codon-optimised for E. coli; also called MBP-FD^(2–285 (T282E)); source: E. coli, purified (Ni-NTA, size-exclusion chromatography); not shown: MBP, N-terminal, kept
T1 sequence (looked up): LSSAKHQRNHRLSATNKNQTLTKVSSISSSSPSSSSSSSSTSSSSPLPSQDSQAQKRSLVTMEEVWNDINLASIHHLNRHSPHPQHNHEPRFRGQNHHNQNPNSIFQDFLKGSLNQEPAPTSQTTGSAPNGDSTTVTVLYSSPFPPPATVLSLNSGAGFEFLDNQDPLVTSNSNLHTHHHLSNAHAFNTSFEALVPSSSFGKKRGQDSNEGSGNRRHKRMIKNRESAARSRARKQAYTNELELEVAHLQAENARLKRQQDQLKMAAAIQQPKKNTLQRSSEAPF

B1: GRF7 (14-3-3ν), recombinant (natural protein, Arabidopsis thaliana, UniProt Q96300 1-265, looked up)
chain: MSSSREENVYLAKLAEQAERYEEMVEFMEKVAKTVDTDELTVEERNLLSVAYKNVIGARRASWRIISSIEQKEESRGNDDHVSIIKDYRGKIETELSKICDGILNLLDSHLVPTASLAESKVFYLKMKGDYHRYLAEFKTGAERKEAAESTLVAYKSAQDIALADLAPTHPIRLGLALNFSVFYYEILNSPDRACSLAKQAFDEAISELDTLGEESYKDSTLIMQLLRDNLTLWNSDINDEAGGDEIKEASKHEPEEGKPAETGQ
notes: GRF7 (14-3-3ν), Arabidopsis thaliana; cloned into pMAL-c5X-His or a modified pMAL-c5X vector; also called GRF7-6His; source: E. coli, purified (Ni-NTA, size-exclusion chromatography)

How the values were obtained:
[1] = target: B1; assay: SEC-MALS; MBP–FDc(T282E) or its mutants with GRF7; 25 mM Tris-HCl pH 8.0, 160 mM NaCl, 2% glycerol; Superdex 200; settings: both partners purified
[2] = target: the molecule itself; assay: SEC-MALS; MBP–FDc(T282E) alone at low concentration; 25 mM Tris-HCl pH 8.0, 160 mM NaCl, 2% glycerol; Superdex 200
[3] = target: the molecule itself; assay: SEC-MALS; MBP–FDc(T282E) or its mutants with GRF7; 25 mM Tris-HCl pH 8.0, 160 mM NaCl, 2% glycerol; Superdex 200
[4] = target: T1, MBP–FD(T282E), maltose-binding …; assay: SEC; gel filtration of mixed purified proteins without DNA, fractions analysed on gel; settings: both partners purified

binding result [1] | Binder | binding result [3] | also measured
binds | MBP–FDc(T282E), N-terminal MBP-fused, truncated FD (amino acids 215–285) (domain or fragment, Arabidopsis thaliana, UniProt Q84JK2 215-285, looked up, FD, Arabidopsis thaliana; also called MBP-FDc^(215–285 (T282E)); source: E. coli, purified; not shown: MBP, N-terminal, kept) NRRHKRMIKNRESAARSRARKQAYTNELELEVAHLQAENARLKRQQDQLKMAAAIQQPKKNTLQRSSEAPF |  | stoichiometry N [2]: 2
binds | MBP–FDc(T282E) Mu6 (L263A) (domain or fragment, Arabidopsis thaliana, UniProt Q84JK2 215-285, looked up, FD, Arabidopsis thaliana; amino acids 215–285; source: E. coli, purified; not shown: MBP, N-terminal, kept) NRRHKRMIKNRESAARSRARKQAYTNELELEVAHLQAENARLKRQQDQAKMAAAIQQPKKNTLQRSSEAPF | binds | 
binds | MBP–FDc(T282E) Mu2 (Y238A,E243A) (domain or fragment, Arabidopsis thaliana, UniProt Q84JK2 215-285, looked up, FD, Arabidopsis thaliana; amino acids 215–285; source: E. coli, purified; not shown: MBP, N-terminal, kept) NRRHKRMIKNRESAARSRARKQAATNELALEVAHLQAENARLKRQQDQLKMAAAIQQPKKNTLQRSSEAPF | binds | 
 | MBP–FDc(T282E) Mu3 (L242A) (domain or fragment, Arabidopsis thaliana, UniProt Q84JK2 215-285, looked up, FD, Arabidopsis thaliana; amino acids 215–285; L242A is printed for Mu3 only in the name of the transgene gFD::3HA-3Flag-FD^Mu3_L242A; source: E. coli, purified; not shown: MBP, N-terminal, kept) NRRHKRMIKNRESAARSRARKQAYTNEAELEVAHLQAENARLKRQQDQLKMAAAIQQPKKNTLQRSSEAPF |  | stoichiometry N [1]: 1 copy of FDc(T282E) per GRF7 dimer
 | B1 |  | binding result [4]: binds
